{"source": "patent US20110112279A1", "about": "(Genentech, published 2011)", "binders": {"B1": {"name": "F5 F(ab)'2 displayed on M13 phage (V0350-4-F5) (other)", "light": "SDIQMTQSPSSLSASVGDRVTITCRASQDVSTAVAWYQQKPGKAPKLLIYSASFLYSGVPSRFSGSGSGTDFTLTISSLQPEDFATYYCQQSYTTPPTFGQGTKVEIKRTVAAPSVFIFPPSDEQLKSGTASVVCLLNNFYPREAKVQWKVDNALQSGNSQESVTEQDSKDSTYSLSSTLTLSKADYEKHKVYACEVTHQGLSSPVTKSFNRGECGASSGMADPNRFRGKDLA", "heavy": "not shown", "notes": "also called F5-F(ab)'2-phage; F(ab)'2-F5 phage"}}, "key": {"[1]": {"biological_target": "T1, human STOP-1, full length, C-terminal 8xHis tag (h762HIP; M1-K243-His), expressed in CHO-psgb cells (human, UniProt Q96CG8 31-243)", "T1 construct": "The secreted protein purified from medium lacks the signal peptide; Light scattering: about 58% hexamer and 42% trimer; also called UNQ762; full length form", "T1 sequence (Q96CG8 other isoform, or with tags, fused parts or gaps limits assumed)": "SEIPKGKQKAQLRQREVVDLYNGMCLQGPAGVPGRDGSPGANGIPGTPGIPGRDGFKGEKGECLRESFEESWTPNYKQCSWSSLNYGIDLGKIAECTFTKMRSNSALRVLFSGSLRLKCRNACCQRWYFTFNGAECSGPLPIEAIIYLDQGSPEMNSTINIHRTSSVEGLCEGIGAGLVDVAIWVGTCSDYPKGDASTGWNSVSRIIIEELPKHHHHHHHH", "assay": "solution competition phage ELISA (762 S/F): short form coated, phage pre-incubated with full length STOP-1 in solution; IC50 is the STOP-1 concentration", "method": "(§1) The wells were blocked by adding 65 ul 1% BSA for 30 minutes followed by 40 ul 1% Tween20 for another 30 minutes. Next, the wells were washed with PBS—0.05% Tween20 5 times. Various dilutions of F(ab) or F(ab)′₂ phage down to 0.1 O.D./ml in ELISA buffer (PBS—0.1% BSA and 0.05% Tween20) were added to the wells for 15 minutes at room temperature. The wells were then washed with PBS—0.05% Tween20 at least three times. 75 ul of HRP-conjugated anti-M13 antibody (Amersham, 1/5000 dilution with ELISA buffer) per well was added and incubated at room temperature for 30 minutes. The wells were washed again with PBS—0.05% Tween20 at least five times. Next, 100 ul/well of a 1:1 ratio of 3,3′,5,5′-tetramethylbenzidine (TMB) Peroxidase substrate and Peroxidase Solution B (H₂O₂) ((Kirkegaard-Perry Laboratories (Gaithersburg, Md.)) was added to the well and incubated for 5 minutes at room temperature. The reaction was stopped by adding 100 ul 1M Phosphoric Acid (H3PO₄) ((Kirkegaard-Perry Laboratories (Gaithersburg, Md.)) to each well. The optical density of the color in each well was determined using a standard ELISA plate reader at 450 nm. The dilutions of phage were plotted against the O.D. readings.\nThird, a competition ELISA was performed. 96-well Nunc Maxisorp plates were coated with full length or short form human STOP-1 (2 ug/ml in PBS) at 4° C. overnight or at room temperature for 2 hours. The wells were blocked by adding 65 ul 1% BSA for 30 minutes followed by 40 ul 1% Tween20 for another 30 minutes. The wells were washed with PBS—0.05% Tween20 5 times. […] The unbound phage was assayed by transferring 75 ul of the well mixture to second 96-well plate pre-coated with full length or short form human STOP-1 and incubating at room temperature for 15 minutes. The wells of the second plate were washed with PBS—0.5% Tween20 at least three times. 75 ul of HRP-conjugated anti-M13 antibody ( 1/5000 dilution with ELISA buffer) per well was added and incubated at room temperature for 30 minutes. The wells were washed again with PBS—0.05% Tween20 at least five times."}, "[2]": {"biological_target": "T2, human STOP-1 short form (L94-K243) with C-terminal His tag, baculovirus expressed (human, UniProt Q96CG8 94-243)", "T2 construct": "also called #94-243; L94-K243-His", "T2 sequence (Q96CG8 94-243)": "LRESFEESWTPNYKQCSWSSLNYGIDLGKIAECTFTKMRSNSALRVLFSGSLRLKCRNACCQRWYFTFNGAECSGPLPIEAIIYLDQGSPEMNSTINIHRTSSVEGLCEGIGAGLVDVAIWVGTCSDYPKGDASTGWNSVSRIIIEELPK", "assay": "solution competition phage ELISA (762 S/S), short form coated and short form as competitor; ND = not detectable", "method": "as §1\nThird, a competition ELISA was performed. 96-well Nunc Maxisorp plates were coated with full length or short form human STOP-1 (2 ug/ml in PBS) at 4° C. overnight or at room temperature for 2 hours. […]"}}}
{"binder": "B1", "values": [{"measurement": "IC50", "setting": "[1]", "value": 1, "unit": "µM"}, {"measurement": "binding result", "setting": "[2]", "value": "no binding (tested: 0.1 to 500 nM competitor)"}]}
